Measurements from patent US5972902, “DNA encoding human IL-6 receptor antagonist and protein encoded thereby” (dated 1999).
Where a chain is given by its changes, count along the chain named. Numbers in names are those of the source.

What was measured:
hIL-6 receptor [1] = target: T1, hIL-6 receptor (human, UniProt P08887)
hIL-6 receptor [2] = target: T1, hIL-6 receptor; experiment: receptor binding assay by the method of Savino et al. 1994
Protocol: The proteins IL-6 DFRD/D160R (coded by the cDNA described in SEQ ID NO:4), IL-6 DFRD/W157R/D160R (coded by the cDNA described in SEQ ID NO:5) and IL-6 DFRD/T162D (coded by the cDNA described in SEQ ID NO:6) were produced according to the state of the art, as described (Arcone, R., Pucci, P., Zappacosta, F., Fontaine, V., Malorni, A., Marino, G., and Ciliberto, G., Eur. J. Biochem. 198, 541–547, 1991). The ability of the mutants to bind to the hIL-6 receptor was measured using state of the art methods, as described (Savino, R., Lahm, A., Salvati, A. L., Ciapponi, L., Sporeno, E., Altamura, S., Paonessa, G., Toniatti, C., Ciliberto, G., EMBO J. 13, 1357–1367, 1994). Table 1 below gives the receptor binding levels for wild type IL-6 and for the mutant forms obtained as described in example 1.

gp130 = gp130 (Homo sapiens (Human), UniProt P40189); experiment: cell-based or functional assay

Molecule: Sant7 (ligand)
- 90% inhibition of interleukin-6 activity on hepatoma cells Hep3B (4 ng/ml wild type IL-6) (hIL-6 receptor [1]): 30 ng/mL
- 90% inhibition of interleukin-6 activity on myeloma cells XG-1 (IL-6-dependent growth, 0.1 ng/ml wild type IL-6) (hIL-6 receptor [1]): 35 ng/mL
- 90% inhibition of interleukin-6 activity on myeloma cells XG-2 (IL-6-dependent growth, 0.5 ng/ml wild type IL-6) (hIL-6 receptor [1]): 950 ng/mL

B1: IL-6 DFRD/D160R (ligand)
chain: PVPPGEDSKDVAAPHRQPLTSSERIDKQIRDILDFISALRKETCNKSNMCESSKEALAENNLNLPKMAEKDGCFQSGFNEETCLVKIITGLLEFEVYLEYLQNRFESSEEQARAVQMRTKDLIQFLQKKAKNLDAITTPDPTTNASLLTKLQAQNQWLQRMTTHLILRSFKEFLQSSLRALRQM
- ability to bind to the IL-6 receptor (% of wild type) (hIL-6 receptor [2]): 137%

B2: IL-6 DFRD/W157R/D160R (ligand)
chain: B1 chain with W157R
- ability to bind to the IL-6 receptor (% of wild type) (hIL-6 receptor [2]): 130%
- Biological activity on human hepatoma cells (gp130): 0%

B3: IL-6 DFRD/T162D (ligand)
chain: B1 chain with R160D, T162D
- ability to bind to the IL-6 receptor (% of wild type) (hIL-6 receptor [2]): 39%
- Biological activity on human hepatoma cells (gp130): 0%
